Data published in article doi:10.1101/2021.08.28.458008v1.

Substrate: O=C1O[C@H]([C@@H](O)CO)C(=O)C1=O
Assay: purified protein
Details: 2 mM GSH

B1: EcGrx2 (Escherichia coli K-12) (protein)
chain: MKLYIYDHCPYCLKARMIFGLKNIPVELHVLLNDDAETPTRMVGQKQVPILQKDDSRYMPESMDIVHYVDKLDGKPLLTGKRSPAIEEWLRKVNGYANKLLLPRFAKSAFDEFSTPAARKYFVDKKEASAGNFADLLAHSDGLIKNISDDLRALDKLIVKPNAVNGELSEDDIQLFPLLRNLTLVAGINWPSRVADYRDNMAKQTQINLLSSMAI
Km (50 mM sodium phosphate pH 7.4): 2879 ± 640.4 µM | kcat (50 mM sodium phosphate pH 7.4): 3.8245 s⁻¹

B2: EcGrx2 (Escherichia coli K-12; C12S/C9S) (protein)
chain: MKLYIYDHSPYSLKARMIFGLKNIPVELHVLLNDDAETPTRMVGQKQVPILQKDDSRYMPESMDIVHYVDKLDGKPLLTGKRSPAIEEWLRKVNGYANKLLLPRFAKSAFDEFSTPAARKYFVDKKEASAGNFADLLAHSDGLIKNISDDLRALDKLIVKPNAVNGELSEDDIQLFPLLRNLTLVAGINWPSRVADYRDNMAKQTQINLLSSMAI
Km (50 mM sodium phosphate pH 7.4, His6-tagged mutant): 968 (±462.3) µM
